{"source": "paper PMC6908968", "about": "(Cell, 2019)", "binders": {"B1": {"name": "5.6.c3557 (antibody, V domains shown)", "VH": "QVQLVESGGGVVQPGRSLRLSCAASGFSITNYAMHWVRQAPGRGLEWVALISYDGINQYYADSVKGRFTFSRDNSKNTLYLQMNSLRLDDTAVYYCARDPASPSDIFQDAFDIWGQGTTVIVSS", "VL": "DIQMTQSPSSLSASVGDRVTITCRASQDISGWLAWYQQKPEKAPRSLIYATSSLQSGVPSRFSGSGSGTDFTLTISSLQPEDFATYYCQQYHSYPLTFGGGTKIQIK"}, "B2": {"name": "5.6.c4011 (antibody, V domains shown)", "VH": "QVQLQESGPGVVKPSETLSLTCTVSGASMTGYYWSWIRQPPGKGLEWIGYIFYSGSTNYNPSLKSRATISVDTSKKQFSLKLSSVTAADTAVYYCARSVVVIENDAFDIWGQGTMVTVSS", "VL": "DIQMTQSPSSLSASVGDRVTITCRASQSTTSYLNWYQQKPGKAPKLLIFAASTLQSGVPSRFSGSGSGTDFTLTISSLQPEDFATYYCQQSYSAPYTFGQGTKLEIK"}, "B3": {"name": "9.1.c1500 (antibody, V domains shown)", "VH": "QLQLQESGPGLVKPSETLSLTCTVSGGSISSSSYFWGWIRQPPGKGLELIGIIYYTGNTNYNPSLKSRVTISVDTSKNQFSLKLSSVTAADTAVYYCARSLEAHLLYYYAMDVWGQGTTVTVFS", "VL": "QSALTQPRSVSGSPGQSVTISCTGTSSDVGGYNYVSWYQQHPGKAPKLMIYDVSQRPSGVPDRFSGSKSGNTASLTISGLQAADEADYYCCSYAGSSWVFGGGTKLTVL"}, "B4": {"name": "5.6.c4515 (antibody, V domains shown)", "VH": "QVQLVESGGDVVQPGRSLRLSCAASGFIFSTYGMHWVRQTPGKGLEWVAVLYYDGRNGYYADSVKGRFTISRDNSKNTLYLQMNSLRAEDTAVYYCARDGCSSTDCLLYYYAMDVWGQGTTVTVSS", "VL": "QSALTQPPSASGSPGQSVTISCTGTSSDVGAYNYVSWYQQHPGKGPKLMIYEVNQRPSGVPGRFSGSKSGNTASLTVSGLQTEDEADYFCSSYAGSNTVVFGGGTKLTVL"}, "B5": {"name": "5.6.c3412 (antibody, V domains shown)", "VH": "QIQLVESGGGVVQPVRSLRLTCAASGFTFSQYGMHWVRQAPGKGLEWVAVISYDGTQKYYSDSVKGRFTISRDNAKNTLSLQMNGLRAEDTAVYYCAKGFLERNFDLWSGSYSDSGWRGPYYGMDFWGQGTTVIVSS", "VL": "QTVVTQEPSFSVSPGGTVTITCALSSGSVSASLYPSWYQQTPGQAPRTLIYSTNTRSSGVPDRFSGSILGNKAALTITGAQADDESDYYCVLFMSSGIYVFGTGTKVTVL"}, "B6": {"name": "5.6.c3479 (antibody, V domains shown)", "VH": "QVHLVESGGGLVKPGGSLRLSCSVSGFAFSDYYMTWIRQAPGKGLEWVSYISGDGGSIYYADSVKGRFTISRDNAKKSLYLQLNSLRADDTAVYYCARDRCDRDQLLCYYYYGMDVWGQGTTVTVSS", "VL": "QSVLTQPPSVSAAPGQKVTISCSGSSSNIGNNYVSWYQQLPGTAPKLLIYDNNKRPSGIPDRFSGSKSGTSATLDITGLQTGDEADYYCGTWDNSLIAGVFGGGTKLTVL"}, "B7": {"name": "5.6.c3360 (antibody, V domains shown)", "VH": "EVQVVESGGGLVKPGGSLRLSCAASGFSFSIYSMNWVRQAPGKGLEWVSSITGSSSYTNYAGSVKGRFTISRDNAKNSLYLQMNSLRADDTAVYYCARDGAVDTDIYYYGMDVWGQGTTVTVSS", "VL": "DIQMTQSPSFVSASIGDRVTITCRASQDISSWLAWYQQKPGKAPTLLIYATSTLQSGVPSRFSGSGSGTDFTLTISSLQPEDFATYYCLQAHSFPRTFGQGTQLEIK"}, "B8": {"name": "5.6.c3835 (antibody, V domains shown)", "VH": "QIQLVQSGAEVKKPGASVKVSCRASGYTFASSGISWVRQAPGQGLEWMGWINVYNGDTNSAHKLQGRVTMTTDTSTSTAYMELRSLRSDDTAVYYCTRDSFCAGSNSCYLWAGYYYYAMDVWGQGTTVTVSP", "VL": "EIVMTQSPATLSVSPGERATLSCRASQSLSSNLAWYQQKPGQAPRLLIYRASTRATGVPARFSGSGSGTEFTLIISNLQSEDFAVYYCQQFQNWPRTFGQGTKVEIK"}, "B9": {"name": "5.6.c3508 (antibody, V domains shown)", "VH": "QVQLEQSGAEVKKPGASVKVSCQAAGYTFTSYGISWVRQAPGQGLEWMGWISADNGNTKYAQNLQARVTMTTDTSTSTAYMEVRRLRSDDTAVYYCARDSGDLSSLLYYGMDVWGQGTTVTVSS", "VL": "DIQLTQSPSFLSASVGDRVTITCRASQGISSYLAWYQQKPGKAPKLLIDAASTLQSGVPSRISGSRSGTEYTLTISSLQPEDFATYYCQQLNNFPFTFGPGTKVDIK"}, "B10": {"name": "5.6.c4392 (antibody, V domains shown)", "VH": "QVQLVESGGGVVQPGRSLRLSCAASGFFFRNYGIHWVRQAPGKGLEWVAIISYDESKKYYADSVKGRFTISRDNSKNTLYLQMNSLRAEDTAVYYCAKAHPHSRWFFDSWGQGTLVTVSS", "VL": "NFVLTQPHSVSDSPGKTVTISCTRSSGSIATDYVQWYQQRPGSAPTLVIYEDNQRPSGVPNRFSGSIDSSSNSASLTISGLETEDEADYYCQSYDPTNLVFGGGTKLTVL"}, "B11": {"name": "5.6.c3362 (antibody, V domains shown)", "VH": "QLQLQQSGPGLVKPSETLSLTCNVSGGSISSSSTYSWGWIRQPPGKGLEWIGNIYYSGSTYYNPSLKSRVTISVDTSKNQFSLKLSSVTAADTAVYYCARSFRGPTGAFYYYSYAMDVWGRGTTVTVSS", "VL": "SSELTQDPAVSVALGQTVRITCQGDSLRTYYASWYQQKPGQAPVLVIYGKKNRPSGIPDRFSGSSSGNTASLTITGAQAEDEADYYCNSQDSSGDLVLFGGGTKVTAL"}, "B12": {"name": "9.1.c1482 (antibody, V domains shown)", "VH": "QLQLQESGPGLVKPSETLSLTCTVSGGSITSGSNYWGWIRQSPGKGLEWIGSIYYSGSTYYNPSLKSRVTTSVDTSKNQFSLRMSSVTAADTALYYCVRHLSTELLFGCFDPWGQGTLVTVSS", "VL": "DIQMTQSPSTLSASVGDRVTITCRASQSITGWLAWYQQKPGKAPKLLIYDASSLESGVPSRFSGSGSGTEFTLTISSLQPDDFATYYCLQYHSYSSFGQGTKLEIK"}, "B13": {"name": "5.6.c4013 (antibody, V domains shown)", "VH": "EVQLVESGGDLVQPGGSLRLSCAASGFTVNANYLGWVRQTPGKGLEWVSLIYSGSGSTYYADSVKGRFTLSRDSSKNTLFLHMNSLRPEDTAVYYCARAGGVVVTAIRTTFDYWGRGTLVTVSS", "VL": "DIQMTQSPSTLSASVGDRVTITCRASQSISRWLAWYQQKPGKAPKLLIYRASSLQNGVPSRFSGSGSGTEFTLTISGLQPDDFGIYYCQEYSSRYTFGQGTQLEIK"}, "B14": {"name": "5.6.c4395 (antibody, V domains shown)", "VH": "EVQLVESGGGLVQPGGSLRLSCAASGFTFSTYEMNWVRQAPGKGLEWIAFIDDGGSTINYADSVKGRFTVSRDNAKNSLYLQMNSLRADDTAIYYCARVMTTSFYYYGVDVWGQGTTVTVSS", "VL": "DIQMTQSPSIVSASVGDRVTITCRASQGVSYWLAWYQQKPGKAPKLLIYAASSLQSGVPSRFSGSGSGTDFTLTISSLQPEDFATYYCQQAHSFPWTFGQGTKVEMK"}, "B15": {"name": "5.6.c4471 (antibody, V domains shown)", "VH": "QIQLVQSGTEVKKPGASVKVSCTASGYTFNNYAITWVRQAPGQGLEWMGWINPYNGDTTYAQKLQGRITMTTGRSTSTAYMDLRSLTSGDTAVYYCARGGAVTDLYFSYVMDVWGQGTTVSVSS", "VL": "B14 VL with I10S, G28D, Y36F, K45E, Y49H, S76N, A91S, M106I"}, "B16": {"name": "5.6.c3507 (antibody, V domains shown)", "VH": "EVQLVESGGGVVQPGGSLRLSCAASGFTFDDYGMHWVRQAPGKGLEWVSFISGDGYSTYYGDSVKGRFTISRDKSKNSLYLQMNSLRTEDTAFYYCAKDGGSTLTTLLYNWFDSWGQGTLVTVSS", "VL": "DIQMTQSPSSLSASVGDRVTITCRASQSINMYLNWYQQKPGKAPKVLIYGASSLQSGVPSRFSGSGSGTDFTLTISSLQPEDFATYYCQQSYSIPVTFGPGTKVDIK"}, "B17": {"name": "5.6.c3567 (antibody, V domains shown)", "VH": "EVQLVESGGVVVQPGGSLRLSCAASGFTFDDYTMHWVRQVPGKGPEWVSLITWDGAHTYYADSVKGRFTISRDNSKNSLYLQMNSLRTEDTALYFCARDTAGGAFWSGYPDYWGQGTLVTVSS", "VL": "B16 VL with N30S, M31S, N34I, A43V, Y92H, V96Y, P100Q, V104L, D105E"}, "B18": {"name": "5.6.c4516 (antibody, V domains shown)", "VH": "EVHLVESGGGLVQRGGSLRLSCVASKFSFSFYSMGWVRQPPGKGLEWVSFISISGTTIYYEDSVKGRFTISRDDAKNSLYLQMNSLRDEDTAVYYCARIPQAAFHFDYWGQGTLVAVSS", "VL": "QSALTQPASVSGSPGQSITISCTGSSSDVGSYNLVSWYQQHPGKAPKLMIYEGSSRPSGVSNRFSGSKSGNTASLTISGLQAEDEADYYCCAYAGTRTWLFGGGTKVTVL"}, "B19": {"name": "5.6.c3397 (antibody, V domains shown)", "VH": "QVQLQESGPGLVKPSETLSLTCTVSGGSISTYYWSWIRQTPGKGLECIGYINYFGSTNYNPSLKSRVTISIDTSKNQFSLKLSSVTAADTAVYYCARHYGVGTYSGGWFDPWGQGTLVTVSS", "VL": "DIQMTQSPSSLSASVGDRVTVTCRASQRINSFLNWYQQKPGKAPKLLIYAASSLQSGVPSRFSGTGSGTDFTLTISSLQPEDFATYYCQQSYSSPRTFGQGTKVEIR"}}, "note": "Changes are numbered by the printed parent chain."}
{"target": "T1, thermolysin-cleaved EBOV GP on Jurkat-GP cells (cleaved GP) (Zaire ebolavirus, Makona (GP1 core …, strain))", "T1 chain 1": "not shown", "T1 chain 2": "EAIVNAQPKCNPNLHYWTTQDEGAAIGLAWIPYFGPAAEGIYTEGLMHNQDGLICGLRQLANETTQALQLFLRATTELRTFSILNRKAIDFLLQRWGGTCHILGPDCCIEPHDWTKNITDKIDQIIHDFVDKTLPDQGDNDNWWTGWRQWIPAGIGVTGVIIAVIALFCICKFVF"}
{"binder": "B1", "binding result": "binds"}
{"binder": "B2", "binding result": "binds"}
{"binder": "B3", "binding result": "binds"}
{"binder": "B4", "binding result": "binds"}
{"binder": "B5", "binding result": "binds"}
{"binder": "B6", "binding result": "binds"}
{"binder": "B7", "binding result": "binds"}
{"binder": "B8", "binding result": "binds"}
{"binder": "B9", "binding result": "binds"}
{"binder": "B10", "binding result": "binds"}
{"binder": "B11", "binding result": "binds"}
{"binder": "B12", "binding result": "binds"}
{"binder": "B13", "binding result": "binds"}
{"binder": "B14", "binding result": "binds"}
{"binder": "B15", "binding result": "binds"}
{"binder": "B16", "binding result": "binds"}
{"binder": "B17", "binding result": "binds"}
{"binder": "B18", "binding result": "binds"}
{"binder": "B19", "binding result": "binds"}
{"target": "EBOV GP ectodomain residues 1-636 (GPec) (Zaire ebolavirus, strain  …, UniProt Q05320)"}
{"binder": "B1", "binding result": "binds"}
{"binder": "B2", "binding result": "binds"}
{"binder": "B3", "binding result": "binds"}
{"binder": "B4", "binding result": "binds"}
{"binder": "B5", "binding result": "binds"}
{"binder": "B6", "binding result": "binds"}
{"binder": "B7", "binding result": "binds"}
{"binder": "B8", "binding result": "binds"}
{"binder": "B9", "binding result": "binds"}
{"binder": "B10", "binding result": "binds"}
{"binder": "B11", "binding result": "binds"}
{"binder": "B12", "binding result": "binds"}
{"binder": "B13", "binding result": "binds"}
{"binder": "B14", "binding result": "binds"}
{"binder": "B15", "binding result": "binds"}
{"binder": "B16", "binding result": "binds"}
{"binder": "B17", "binding result": "binds"}
{"binder": "B18", "binding result": "binds"}
{"binder": "B19", "binding result": "binds"}
